Experiment: yeast display, Sf9 membrane polyspecificity reagent, FACS + sequencing; frameworks hold sequencing errors
Procedure, shortened: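 In a synthetic yeast display library (Saccharomyces cerevisiae BJ5465), nanobody expression was induced with galactose for 36–48 hours. FACS gates were set low and high (top ~1%) using anti-HA fluorescence for expression and streptavidin fluorescence for binding of the Sf9 membrane reagent. Each polyreactivity label is drawn from the gate of origin.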

Sequence	polyreactivity (PSR sort gate)
QDQLVESGGGLVQAGGSLRLSCSASGRIFYYYTMGWYRQEPGKERELVAAISSGGSTNYADSVKGRFTISRDNAKNTVYLQMNSLKPEDTAVYYCNVELTTVGHWYYYRPGYDYWVQGTQVTVSS	low polyreactivity
QVQLVESGGGLVQAGGSLRLSCAASGRTFIYYAMGWYRQAPGKERELVAAITNRGGRTYYADSVKWRFTISRDNAKYTVYLQMNSLKPEDTAVYYCNRVGTYHSYDYWGQGTQVTVSS	high polyreactivity
QVQLVESGGGLVQAGGSLRLSCAASGSIFYRNAMGWYRPAPGKERELVAAISSDGSTNYADSVKGRFTISRDNAKNTVYLQMNSLKPEDTAVYYCAVDRYRYPFDYWGQGTQVTVSS	low polyreactivity
QVQLVESGGGLVQAGGSLRLSCAASGSTFFYYAMGWYRQAPGKERELVARITRGGGSTNYADSVKGRFTISRDNAKNTVYLQMNSLKREDTAVYYCAKRRKVTYDYWGQGTQVTVSS	high polyreactivity
QVQLVESGGGLVQAGGSLRLSCAASGRILRSNAMGWYRQAPGKERELVAAITSSGGSTRYADSVKGRFTISRDNAKNTVYLQMNSLKPEDTAVYYCAARYRQGFQAGHGYWGQGTQVTVSS	high polyreactivity
QVQLVESGGGLVQAGGSLRLSCAASGRIFGAYAMGWYRQAPGKERELVAAITSRGGNTYYADSVKGRFTISRDTAKNTVYLQMNSLKPEDTAVYSCAARHDKRRQYYVGQSAFDYWGQGTQVTVSS	low polyreactivity
QVQLVESGGGLVQAGGSLRLSCAASGSILTRNAMGWYRQAPAKEREFVARITYSGGRTYYADSVKGRFTISRDNAKNTVYLQMNSLKPEDTAVYYCAKTDRYSLGYWGQGTQVTVSS	low polyreactivity
QVQLVESGGGLVQAGGSLRLSCAASGFIFHLYAMGWYRQAPGKERELVAVISGGGSTYYADSVKGRFTISRDNAKNTVYLQMNSLKPEDTAVYYCNVGRYYRYATGGDYWGQGTQVTVSS	high polyreactivity
QVQLVESGGGLVQAGGSLRLSCAASGRIFRHYAMGWYRQAPWKERELVATITSGGRTNYADSVKGRFTISRDNAKNTVYLQMNSLKPEDTAVYYGAVDTWGSSWYDLFRETSDYWGQGTQVTVSS	low polyreactivity
QVQLVESGGGLVQAGGSLRLSCAASGSIFPGYAMGWSRQAPGKERELVATISTGGSTYYADSVKGRFTISRDNAKNTVYLQMNSLKPEDTAVYYCNADIRSYLRYSLRRYDDYDYWGQGTQVTVSS	low polyreactivity
QVQLVDSGGGLVQAGGSLRLSCAASGRTFTIYAIGWYRQAPGKEREFVASITGSDGSTYYADSVKGRFTISRDNAKNTVYLQMNSLKPEDTAVYYCAAATSSAYDYWGQGTQVTVSS	low polyreactivity
QVQLVESGGGLVQAGGSLRLSCAASGSTFYYYTMGWYRQAPGKERELVDISWDGDSTYSADSVKGRFTISRDNAKNTVYLQMNSLKPEDTAVYYCAAADYYLPDDVSDYVDANFDYWGQGTQVTVSS	low polyreactivity
QVQLVESGGGLVQAGGSLRLSCAASGSTLYFYAMGWYRQAPGKERELVASISGTGGRTDYADSVKGRFTISRDNAKNTVYLQMNSLKPEDTAVYYCAARGLVYQSNRYYGYRDYYYWGQGTQVTVSS	high polyreactivity
QVQLVESGGGLVQAGGSLRLSCAASGNTDVGYAMGWYRQAPGKETEFVAAISSRTGRTYYADTVKGRFTISRDNAKNTVFLQMISLKPEDTAVYYCAAVRGAPRYRYDYWGQGTQVTVSS	high polyreactivity
QVQLVESGGGLVQAGASLRLSCAASGFTFGWYAMGWSRQARGKERELVAAISYSGGSTYYADSVKGRFTISRDNAKNTVYLQMISLKPEDTAVYYCAALYTGDSGYWGQGTQVTVSS	high polyreactivity
HVQLVESGGGLVQAGGSLRLSCAASGRIFLRYAMGWYRQAPGKERELVAVISSGGSTYYADSVKGRFTISRDNAKNTVYLQMHSLKPEDSAVYYCAARRHDSRYQYDYWGQGTQVSVSS	high polyreactivity
QVQLVESGGGLVQAGGSLRLSCAASGFTFPDYAMGWYRQAPGKEREMVAAISSDGSTYYADSVKGRFTISRDNAKNTVYLQMNSLKPEDTAVYYCAAYVVWLYGYDYWGQGTLVTVSS	low polyreactivity
QVQLVESGGGLVQAGGSLRLSCAASGRTFYRYAMGWYRQAPGKERELVAAISYSGGSTYYADSVKGRFTISRDNAKNTVYLQMNSLKPEDTAVYYCNARPVKASYVGYNYWGQGTQVTVSS	high polyreactivity
QVQLVESGGGLVQAGGSLRLSCAASGSILNFYAMGWYRQAPGKERELVAAISSGGSTNYADSVKGRFTISRDNAKNTVYLQMNSLKPEDTAVYYCAATGGDRYEAYYYWGQGTQVTVSS	low polyreactivity
QVQLVESGGGLVQAGGSLRLSCAASGRICGSYAMGWYRQAPGKERELVADISWRGTSTYYADSVKGRFTISRDIAKNTVYLQMNSLKPEDTAVYYCAARGLWPYDYWGQGTQVTVSS	low polyreactivity
QVQLVESGGGLVQAGGSLRLSCAASGSIFNYYAMGWYRQAPGKERELVAGITTSGGSTYYADSVKGRFTISRDNAKNTVYLQMNSLKPEDTAVYYCAAYDYISSTYFLDDYWGQGTQVTVSS	low polyreactivity
QVQLVESGGGLVQAGGSLRLICAASGIIFTRYAMGWYRQAPGKERELVAAISTRGGSTYYADSVKGRFTISRDNAMNTVYLQMNSLKPEDTAVYYCAATNAKDGEMDYWGQGTQVTVSS	high polyreactivity

Sequence	polyreactivity (PSR sort gate)
QVQLVESGGGLVQAGGSLRLSSAASGFIFVGNAMGWYRQAPGKERELVATISGADSTNYADSVKGRFTISRDNAKNTVYLQMNSLKPEDTAVYDCAKEGYSYFDGNYGPYRYDYWGQGTQVTVSS	low polyreactivity
QVQLVESGGGLVQAGGSLRLSCAASGRIFTNNPMGWYRQAPGQERELVAAISRSGGRTYYADSVKGRFTISRDNAKNTVYLQRNCLKPEDTAVYYCAAVHLYYGYNSPFTMDYWGQGTQVTVSS	high polyreactivity
QVQLVDSGGGLVQAGGSLRLSCAASGSILYPYAMGWDRQAPGKEREFVAAITYGGGRTYYADSVKGRFTISRDNAKNTVYLQMNSLKPEDTAVYYCAAKSVYAGRRRIYYLWYDYWGQGTQVTVSS	high polyreactivity
QVQLVESGGGLVQAGGSLRLSCAASGSIFAYNAMGWYRQAPGKDREFVAAISQSGGRTYYAHSVKGRFTISRDNAKNTVYLQMNILKPEDTAVYYCATDGIRLTRHRDYDYWGQGTQVTVSS	low polyreactivity
QVQLVESRGGLVQAGGSLRLSSAASGLTLYGYTMGWYRQAPGKERELVATMTSGRDSTYYADSVKGRFTISGDNAKNTFYLEMHCLKPEDTAVYYCGAPYAGWRDGGDYWGQGTQVTVSS	low polyreactivity
QVQIVESGGGLVQAGGSHRLSCAASGSTFVYNAMGWYRQAPGIQRELVAAITVIGGRTYYADSVKGRFTISRDNAKNTVYLQMNSLKPEDTSVYYCNGTWAYRGHGYWGQGTEVTVSS	low polyreactivity
QVQLVESGGGLVQAGGSLRLSCASSGFTFYSYDMGWYRQAPGKERELVAAITWYGGSTYYADSVKGRFTISRDNAKNTVYLQMKSLKQEDTAVYYCAAELFPLQHFWVAYATRRYDYWGQCTQVTVSS	low polyreactivity
QVQLVESGGGLVQAGGSLRLSCAASGMIFTLYAMGWNRQAPGKERELVAGIDASGGSTSYADSVKGRFTISRDNAKNTVYLQMNSLKPEDTAVYYCAARILPYGYDYWGQGTQVTVSS	low polyreactivity
QVQLVESGGGLVQAGGSLRLSCAATGFIFPINAMGWYRQAPGKERELVAAITGGGSTSYADSVKGRFTISRDNAKNTVYLQMNSLKPEDTAVYYCATDRLTYTKYGYWGQGTQVTVSS	low polyreactivity
QVQLVESGGGLVQAGGSLRLSCAASGIIFYLYAMGWYRQAPGKERELVAAISWRGGSTYYADSVKGRFTISRDNAKNTVYLQMNSLKPEDTAVYYCNKTQPIDLYGYWGQGTQVTVSS	high polyreactivity
QVQLVESGGGLVQAGGSLRLSCAASGRIFQGYVMGWYRQAPGKERELVAAITTGGSTYYADSVKGRFTISRDNAKNTVYLQMNSLKPEDTAVYYCNAVVYVSGYNPYIFGYWGQGTQVTVSS	low polyreactivity
QVQLVESGGGLDQAGGSLRLRCAPSGRIFSYVMGWYRQAPGKERELVAAISGGVRTYYADSVKGRFTISRDNAKNTVYLQMNSLKPEDTAVYYCNADWYRKRNYWGQGTQVTVSS	high polyreactivity
QVQLVESGGGLVQAGGSLRLSCAASGSTFDFYAMGWYRQAPGKERELVAAISWSAGSTYYADSVKGRFTISRDIAKNTVYLQMNSLKPEDTAVYYCNADYWGQGTQVTVSS	low polyreactivity
QVQHVESGGGLVQAGGSLRLSCSASGSTFGLYAMGWSRQAPGKETELVAVISWRGGSTYYADSVKGRFTISRDNAKNTVYLQMNSLKPEDTAVYYCAAYSRYPYVRYDYWGQGTQVTVSS	low polyreactivity
QVQLVESGGGFVQAGGSLRLSCAASGINVSHYTMGWYRQAPGKERELVAGISRSGGSTYYADSVKGRFTISRDNAKNTVYLQMNSLKPDDTAVYYCAADGYGFVSPRGYNYWGQGTQVTVSS	high polyreactivity
QVQLVESGGGLVQAGGSLRLSCAASGSTFYDYAMGWSRQAPGKERELVAAINGNGDSTYYADSVKGRFTISRDNAKITVYLLMNSLKPEDTAVYDCAAYLGWGYDYWGQGTQVTVSS	low polyreactivity
QVQLVESGGGLVQAGGSLRFSCAASRSIFFWYTMGWYRQAPGKYRELVATITGSGSSTTYADSVKGRFTISRDNAKNTVYLQMNSLKPEDTAVYYCAAADIIDHSFPYDYWGQGTQVTVSS	low polyreactivity
QVQLVESGGGLVQAGGSLRLSCAASGRTFSKYTMGWYRQATGKERELVAAIDRSGGSTYYADSVKGRFTISRDNAKNTVYLQMNSLKPEDTAVYYCAAVYYLVPGNYWGHGTQVTVSS	high polyreactivity
QVQLVESGGGLDQAGGSLLLSCAASGSIFRSNAMGWYRQAPRKERELVAAIDYSGTSTTYADSVKGRFSISRDNAKNTVYLQMNSLKPEDTAVYYCNADGYYRGYWSGYEYWGQGTQGTVSS	low polyreactivity
QVQLVESGGVLDQAGGSLRLSFAASGFTFGAYAMGWYRHAPGKETELVASISWSGGSTYYADSVKGRFTISRDNAKNPVYLQMNSVKPEDTAVYYCNKDFVYPEDDGLFDFWGQGTQVTVSS	low polyreactivity
QVQRVESGLGLVQAGCSLRLTCAASGRIFDGYAMGWYRPARGKERELVATISSGGFTYYADSVKGSFTISRDNAKNTFYLQMNILKPEDTAVYYCAATPICSGGWGDYWGQGTQVTVSS	low polyreactivity

Source: the nanobody polyreactivity screen of Harvey et al. (2022)
